US6174855A, “Pharmaceutical compositions comprising thrombin inhibitors and their use in the control of wound healing processes” (AstraZeneca AB, priority 1996, dated 2001)

System: fibrin-related adhesions between the stomach and the liver, the intestines and the omentum
Assay: Acetic acid injury to the serosal surface of the rat stomach: formation of adhesions
Assay type: in vivo
Details: minipump in abdominal cavity, outlet free and open; wound covered by chitosan membrane; up to 10 days
Experimental: The serosal surface of the stomach of an adult anaesthetised rat was exposed in an area of 7 mm diameter to 80% acetic acid over 60 seconds. After rinsing with buffered saline solution, an osmotic minipump (Alza 2001, volume about 220 μL; pumping rate about 1 μL/h; Alza Corp.; Palo Alto, Calif., USA; prefilled with a solution of the thrombin inhibitor melagatran, 2-100 μg/mL) was implanted into the peritoneal cavity, with the outlet of the pump kept open, and delivered its content into the abdominal cavity. The wounded area was covered by a chitosan membrane or, in an alternative experiment, a gel, having a diameter several millimeters larger than that of the injured area.
The serosal surface of the stomach of an adult, anaesthetised rat was exposed in an area of 7 mm diameter to 80% acetic acid over 60 seconds. After rinsing with buffered saline, the wounded area was covered by a chitosan membrane or, in an alternative experiment, a gel, having a diameter several millimeters larger than the injured area. An osmotic minipump (Alza 2001, volume about 220 μL; pumping rate about 1 μL/h; Alza Corp.; Palo Alto, Calif., USA; prefilled with a solution of the thrombin inhibitor melagatran, 2-100 μg/mL) was implanted subcutaneously, with the outlet of the pump kept open, delivering its content into the adjacent tissue. […]

B1: Actilyse: recombinant human tissue-plasminogen-activator; Boehringer Ingelheim (protein, UniProt P00750 36-562, looked up)
Tissue-type plasminogen …: SYQVICRDEKTQMIYQQHQSWLRPVLRSNRVEYCWCNSGRAQCHSVPVKSCSEPRCFNGGTCQQALYFSDFVCQCPEGFAGKCCEIDTRATCYEDQGISYRGTWSTAESGAECTNWNSSALAQKPYSGRRPDAIRLGLGNHNYCRNPDRDSKPWCYVFKAGKYSSEFCSTPACSEGNSDCYFGNGSAYRGTHSLTESGASCLPWNSMILIGKVYTAQNPSAQALGLGKHNYCRNPDGDAKPWCHVLKNRRLTWEYCDVPSCSTCGLRQYSQPQFRIKGGLFADIASHPWQAAIFAKHRRSPGERFLCGGILISSCWILSAAHCFQERFPPHHLTVILGRTYRVVPGEEEQKFEVEKYIVHKEFDDDTYDNDIALLQLKSDSSRCAQESSVVRTVCLPPADLQLPDWTECELSGYGKHEALSPFYSERLKEAHVRLYPSSRCTSQHLLNRTVTDNMLCAGDTRSGGPQANLHDACQGDSGGPLVCLNDGRMTLVGIISWGLGCGQKDVPGVYTKVTNYLDWIRDNMRP
- fibrin network or strands of newly formed granulation tissue connecting the stomach with the liver, the intestines and the omentum: No fibrin network, nor any strands of newly formed granulation tissue, could be detected
